From patent publication US20250011363A1, “OPTIMIZED SHORTENED PEPTIDE THAT BINDS TO ACETYLCHOLINE RECEPTOR, AND USE THEREOF” (SKINMED CO., LTD., priority 2021, published 2025) come the findings set out here.

Experiment [1] addresses acetylcholine receptor. The experiment in a line: SPR, AchR immobilized on CM5 chip, peptide 10 uM. A general note: In SPR one partner is held on a chip, and binding of the other changes the refractive index at the surface.
In experiment [2] the target is acetylcholine receptor. Put plainly: SPR, AchR immobilised, peptide 10 uM.

For the molecule RRANMR [6mer-1-755], the Binding affinity (RU) with acetylcholine receptor [1] turned out to be 25 RU.

KRMMPK [6mer-1-789] had a Binding affinity (RU) with acetylcholine receptor [1] of 19 RU.

In turn, RKAEKR [6mer-1-602] gave a Binding affinity (RU) with acetylcholine receptor [2] of 18 RU.

For KRASPK [6mer-1-765], the Binding affinity (RU) with acetylcholine receptor [1] is 25 RU.

As to RKIPKK [6mer-1-788], the Binding affinity (RU) with acetylcholine receptor [1] came out at 22 RU.

The molecule KKCHMR [6mer-1-795] yielded a Binding affinity (RU) with acetylcholine receptor [1] of 12 RU.

In turn, KKNAWK [6mer-1-782] displayed a Binding affinity (RU) in the experiment with acetylcholine receptor [1] of 30 RU.

In the case of KKTPNR [6mer-1-793], the Binding affinity (RU) in the experiment with acetylcholine receptor [1] was determined as 31 RU.

RRHAFK [6mer-1-796]: the Binding affinity (RU) with acetylcholine receptor [1] is 28 RU.

In the case of KKESIK [6mer-1-787], the Binding affinity (RU) with acetylcholine receptor [1] was determined as 16 RU.

With KKTKAR [6mer-1-762], the Binding affinity (RU) with acetylcholine receptor [1] stood at 13 RU.

Regarding KKFTKK [6mer-1-604], the Binding affinity (RU) with acetylcholine receptor [2] worked out at 24 RU.

RKNADR [6mer-1-605] registered a Binding affinity (RU) with acetylcholine receptor [2] of 20 RU.

RRDCAK [6mer-1-763] displayed a Binding affinity (RU) in the experiment with acetylcholine receptor [1] of 12 RU.

RKCTIR [6mer-1-766] came in with a Binding affinity (RU) with acetylcholine receptor [1] of 15 RU.

RREWFR [6mer-1-606] yielded a Binding affinity (RU) in the experiment with acetylcholine receptor [2] of 15 RU.

As to KKEWNK [6mer-1-601], the Binding affinity (RU) in the experiment with acetylcholine receptor [2] was 27 RU.

As for RRNPFK [6mer-1-764], the Binding affinity (RU) in the experiment with acetylcholine receptor [1] was 24 RU.

For the molecule KRIKEK [6mer-1-786], the Binding affinity (RU) with acetylcholine receptor [1] amounted to 26 RU.

KKFTPK [6mer-1-784] returned a Binding affinity (RU) with acetylcholine receptor [1] of 33 RU.

With RRDDFR [6mer-1-778], the Binding affinity (RU) with acetylcholine receptor [1] was 28 RU.

In turn, KKEMER [6mer-1-774] registered a Binding affinity (RU) with acetylcholine receptor [1] of 21 RU.

RKETFR [6mer-1-761]: in the experiment with acetylcholine receptor [1], the Binding affinity (RU) came out at 33 RU.

In the case of KRTPDK [6mer-1-767], in the experiment with acetylcholine receptor [1], the Binding affinity (RU) was found to be 18 RU.

Consider KKMDIK [6mer-1-771], for which the Binding affinity (RU) with acetylcholine receptor [1] stood at 17 RU.

In the experiment with acetylcholine receptor [1], RKTNAR [6mer-1-770] yielded a Binding affinity (RU) of 29 RU.

Consider RKKKMK [6mer-1-754], for which the Binding affinity (RU) in the experiment with acetylcholine receptor [1] stood at 24 RU.

For the molecule RRHNHR [6mer-1-777], the Binding affinity (RU) with acetylcholine receptor [1] is 16 RU.

As to RRAWNK [6mer-1-797], the Binding affinity (RU) with acetylcholine receptor [1] came to 22 RU.

In turn, RRPDAR [6mer-1-779] gave a Binding affinity (RU) with acetylcholine receptor [1] of 30 RU.

KRMMVR [6mer-1-760] returned a Binding affinity (RU) with acetylcholine receptor [1] of 21 RU.

Molecule RKPDDK [6mer-1-791] returned a Binding affinity (RU) with acetylcholine receptor [1] of 13 RU.

Turning to KRTEIR [6mer-1-773], in the experiment with acetylcholine receptor [1], the Binding affinity (RU) is 29 RU.

As to KKYHHR [6mer-1-758], in the experiment with acetylcholine receptor [1], the Binding affinity (RU) turned out to be 33 RU.

For KKTSIK [6mer-1-776], the Binding affinity (RU) with acetylcholine receptor [1] turned out to be 13 RU.

Turning to KRKDKK [6mer-1-792], the Binding affinity (RU) with acetylcholine receptor [1] turned out to be 30 RU.

For the molecule RKAKMK [6mer-1-756], the Binding affinity (RU) in the experiment with acetylcholine receptor [1] was determined as 33 RU.

In the experiment with acetylcholine receptor [1], KKTCER [6mer-1-785] showed a Binding affinity (RU) of 19 RU.

In turn, RKMTWR [6mer-1-759] showed a Binding affinity (RU) in the experiment with acetylcholine receptor [1] of 23 RU.

As for KRKCWR [6mer-1-780], the Binding affinity (RU) in the experiment with acetylcholine receptor [1] was determined as 24 RU.

As for RRHWDK [6mer-1-781], the Binding affinity (RU) with acetylcholine receptor [1] is 16 RU.

For RKYEPK [6mer-1-794], in the experiment with acetylcholine receptor [1], the Binding affinity (RU) stood at 11 RU.

In the experiment with acetylcholine receptor [1], RKDNEK [6mer-1-757] came in with a Binding affinity (RU) of 26 RU.

With KKNEFK [6mer-1-783], in the experiment with acetylcholine receptor [1], the Binding affinity (RU) came out at 29 RU.

KRPHFK [6mer-1-603] registered a Binding affinity (RU) with acetylcholine receptor [2] of 13 RU.

RRDCFR [6mer-1-798] came in with a Binding affinity (RU) in the experiment with acetylcholine receptor [1] of 18 RU.

Consider KRNCAK [6mer-1-772], for which the Binding affinity (RU) with acetylcholine receptor [1] amounted to 12 RU.

Consider KKYPWR [6mer-1-775], for which the Binding affinity (RU) with acetylcholine receptor [1] is 12 RU.

In turn, RKFEWK [6mer-1-768] registered a Binding affinity (RU) with acetylcholine receptor [1] of 32 RU.

In the experiment with acetylcholine receptor [1], KKPNPK [6mer-1-790] gave a Binding affinity (RU) of 12 RU.

For RKMPVK [6mer-1-769], in the experiment with acetylcholine receptor [1], the Binding affinity (RU) was 14 RU.
